# Laboratory results published in IntAct's records for PubMed 14699056.
# B1: Protein EMP47 (Saccharomyces cerevisiae), P43555 (parent)
# chain: MMMLITMKSTVLLSVFTVLATWAGLLEAHPLGDTSDASKLSSDYSLPDLINARKVPNNWQTGEQASLEEGRIVLTSKQNSKGSLWLKQGFDLKDSFTMEWTFRSVGYSGQTDGGISFWFVQDSNVPRDKQLYNGPVNYDGLQLLVDNNGPLGPTLRGQLNDGQKPVDKTKIYDQSFASCLMGYQDSSVPSTIRVTYDLEDDNLLKVQVDNKVCFQTRKVRFPSGSYRIGVTAQNGAVNNNAESFEIFKMQFFNGVIEDSLIPNVNAMGQPKLITKYIDQQTGKEKLIEKTAFDADKDKITNYELYKKLDRVEGKILANDINALETKLNDVIKVQQELLSFMTTITKQLSSKPPANNEKGTSTDDAIAEDKENFKDFLSINQKLEKVLVEQEKYREATKRHGQDGPQVDEIARKLMIWLLPLIFIMLVMAYYTFRIRQEIIKTKLL
# partner: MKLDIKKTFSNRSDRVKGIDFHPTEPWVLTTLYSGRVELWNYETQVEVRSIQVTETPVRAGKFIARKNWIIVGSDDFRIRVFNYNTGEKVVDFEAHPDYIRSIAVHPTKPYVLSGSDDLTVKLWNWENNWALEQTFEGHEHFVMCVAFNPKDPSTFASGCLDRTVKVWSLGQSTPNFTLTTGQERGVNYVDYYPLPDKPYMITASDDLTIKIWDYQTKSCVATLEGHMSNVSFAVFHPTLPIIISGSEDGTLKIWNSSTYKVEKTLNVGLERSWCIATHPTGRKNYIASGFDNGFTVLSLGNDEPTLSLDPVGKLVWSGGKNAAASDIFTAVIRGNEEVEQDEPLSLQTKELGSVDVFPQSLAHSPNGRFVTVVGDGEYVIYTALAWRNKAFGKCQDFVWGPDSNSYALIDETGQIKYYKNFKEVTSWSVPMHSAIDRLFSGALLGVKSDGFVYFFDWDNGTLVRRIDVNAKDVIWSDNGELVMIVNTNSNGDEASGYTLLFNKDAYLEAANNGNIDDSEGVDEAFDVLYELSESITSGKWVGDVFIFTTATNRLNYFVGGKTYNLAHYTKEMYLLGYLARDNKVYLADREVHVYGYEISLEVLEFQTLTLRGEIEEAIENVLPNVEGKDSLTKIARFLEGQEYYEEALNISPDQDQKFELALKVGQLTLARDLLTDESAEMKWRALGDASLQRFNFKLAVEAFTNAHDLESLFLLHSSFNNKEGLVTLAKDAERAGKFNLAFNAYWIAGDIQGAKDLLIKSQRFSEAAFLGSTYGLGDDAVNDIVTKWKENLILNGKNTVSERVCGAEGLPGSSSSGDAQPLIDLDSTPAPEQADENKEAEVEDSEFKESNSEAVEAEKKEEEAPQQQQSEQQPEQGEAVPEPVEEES
# B2: Dolichyl-diphosphooligosaccharide--protein glycosyltransferase subunit WBP1 (Saccharomyces cerevisiae), P33767 (parent)
# chain: MRTDWNFFFCILLQAIFVVGTQTSRTLVLYDQSTEPLEEYSVYLKDLEQRNYKLEYLDINSTSTTVDLYDKEQRLFDNIIVFPTKGGKNLARQIPVKQLIKFFENEGNILCMSSPGAVPNTIRLFLNELGIYPSPKGHVIRDYFSPSSEELVVSSNHLLNKYVYNARKSEDFVFGESSAALLENREQIVPILNAPRTSFTESKGKCNSWTSGSQGFLVVGFQNLNNARLVWIGSSDFLKNKNQDSNQEFAKELLKWTFNEKSVIKSVHAVHSHADGTSYDEEPYKIKDKVIYSVGFSEWNGEEWLPHIADDIQFELRQVDPYYRLTLSPSGNDSETQYYTTGEFILPDRHGVFTFLTDYRKIGLSFTTDKDVKAIRHLANDEYPRSWEISNSWVYISAICGVIVAWIFFVVSFVTTSSVGKKLETFKKTN
# partner: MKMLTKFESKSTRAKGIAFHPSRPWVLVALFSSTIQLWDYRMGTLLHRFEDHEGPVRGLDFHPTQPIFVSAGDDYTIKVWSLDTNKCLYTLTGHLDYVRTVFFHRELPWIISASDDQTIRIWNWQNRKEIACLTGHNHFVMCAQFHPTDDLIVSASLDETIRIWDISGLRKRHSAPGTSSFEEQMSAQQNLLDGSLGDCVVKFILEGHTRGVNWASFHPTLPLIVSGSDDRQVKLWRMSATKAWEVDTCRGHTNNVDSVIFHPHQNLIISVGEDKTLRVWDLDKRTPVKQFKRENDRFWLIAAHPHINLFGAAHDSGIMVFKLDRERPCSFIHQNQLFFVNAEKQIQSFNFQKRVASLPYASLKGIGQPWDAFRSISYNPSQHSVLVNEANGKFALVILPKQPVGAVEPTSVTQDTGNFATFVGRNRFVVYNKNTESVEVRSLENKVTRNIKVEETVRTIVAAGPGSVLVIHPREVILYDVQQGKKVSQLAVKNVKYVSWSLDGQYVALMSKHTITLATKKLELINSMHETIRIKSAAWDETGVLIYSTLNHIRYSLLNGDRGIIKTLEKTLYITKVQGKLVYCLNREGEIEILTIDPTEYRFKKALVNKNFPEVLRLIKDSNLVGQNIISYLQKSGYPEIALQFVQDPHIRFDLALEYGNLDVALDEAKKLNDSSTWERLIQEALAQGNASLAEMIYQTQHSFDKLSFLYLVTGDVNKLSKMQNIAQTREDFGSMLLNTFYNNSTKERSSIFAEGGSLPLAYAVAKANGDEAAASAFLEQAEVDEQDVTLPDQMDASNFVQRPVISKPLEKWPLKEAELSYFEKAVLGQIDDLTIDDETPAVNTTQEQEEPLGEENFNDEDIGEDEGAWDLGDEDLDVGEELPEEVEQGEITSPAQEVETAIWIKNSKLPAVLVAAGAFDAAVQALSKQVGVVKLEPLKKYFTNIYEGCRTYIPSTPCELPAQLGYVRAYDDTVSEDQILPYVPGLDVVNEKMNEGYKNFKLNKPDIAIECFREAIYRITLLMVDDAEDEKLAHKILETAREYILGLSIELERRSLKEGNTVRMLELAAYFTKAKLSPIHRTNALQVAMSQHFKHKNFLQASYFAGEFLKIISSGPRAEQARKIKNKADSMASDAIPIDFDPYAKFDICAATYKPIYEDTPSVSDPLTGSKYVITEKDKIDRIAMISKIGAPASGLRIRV
# Variants of: B1
# Settings: with copb2_yeast SEC27, P41811
row,Variant,effect of a mutation on the interaction
1,MMMLITMKSTVLLSVFTVLATWAGLLEAHPLGDTSDASKLSSDYSLPDLINARKVPNNWQTGEQASLEEGRIVLTSKQNSKGSLWLKQGFDLKDSFTMEWTFRSVGYSGQTDGGISFWFVQDSNVPRDKQLYNGPVNYDGLQLLVDNNGPLGPTLRGQLNDGQKPVDKTKIYDQSFASCLMGYQDSSVPSTIRVTYDLEDDNLLKVQVDNKVCFQTRKVRFPSGSYRIGVTAQNGAVNNNAESFEIFKMQFFNGVIEDSLIPNVNAMGQPKLITKYIDQQTGKEKLIEKTAFDADKDKITNYELYKKLDRVEGKILANDINALETKLNDVIKVQQELLSFMTTITKQLSSKPPANNEKGTSTDDAIAEDKENFKDFLSINQKLEKVLVEQEKYREATKRHGQDGPQVDEIARKLMIWLLPLIFIMLVMAYYTFRIRQEIISTSLL [K441S;K443S],decreasing interaction

# Variants of: B2
# Settings: with copa_yeast COP1, P53622
row,Variant,effect of a mutation on the interaction
1,MRTDWNFFFCILLQAIFVVGTQTSRTLVLYDQSTEPLEEYSVYLKDLEQRNYKLEYLDINSTSTTVDLYDKEQRLFDNIIVFPTKGGKNLARQIPVKQLIKFFENEGNILCMSSPGAVPNTIRLFLNELGIYPSPKGHVIRDYFSPSSEELVVSSNHLLNKYVYNARKSEDFVFGESSAALLENREQIVPILNAPRTSFTESKGKCNSWTSGSQGFLVVGFQNLNNARLVWIGSSDFLKNKNQDSNQEFAKELLKWTFNEKSVIKSVHAVHSHADGTSYDEEPYKIKDKVIYSVGFSEWNGEEWLPHIADDIQFELRQVDPYYRLTLSPSGNDSETQYYTTGEFILPDRHGVFTFLTDYRKIGLSFTTDKDVKAIRHLANDEYPRSWEISNSWVYISAICGVIVAWIFFVVSFVTTSSVGKKLETFAATN [K427A;K428A],decreasing interaction
